Data reported in a protein production outcome set (Wang et al. 2014).

Test: label from the status in PepcDB records

| Sequence | protein production |
| --- | --- |
| MNQGKIITVSGPLVVASGMQEANIQDICRVGHLGLVGEIIEMRRDQASIQVYEETSGIGPGEPVVTTGCPLSVELGPGLISEMFDGIQRPLDRFQKATDSDFLIRGVAIPSLDRKAKWAFIPKLSVGQEVVAGDILGTVQETAVIEHRIMVPYKVSGTLVAIHAGDFTVTDTVYEIKQEDGSIYQGSLMQTWPVRQSRPVAQKLIPVEPLVTGQRVIDTFFPVTKGGAAAVPGPFGAGKTVVQHQIAKFANVDIVIYVGCGERGNEMTDVLNEFPELIDPNTGQSIMERTVLIANTSNMPVAAREASIYTGITIAEYFRDMGYSVAIMADSTSRWAEALREMSGRLQEMPGDEGYPAYLGSRIAEYYERAGRVRTLGSQEREGTITAIGAVSPPGGDISEPVTQNTLRIVKVFWGLDAPLAQRRHFPAINWLTSYSLYQDDVGSYIDRKQQSNWSNKVTRAMAILQREASLEEIVRLVGLDSLSEQDRLTMAVARQIREDYLQQNAFDSVDTFTSFPKQEAMLTNILTFNEEASKALSLGAYFNEIMEGTAQVRDRIARSKFIPEENLEQIKGLTQKVTKEIHHVLAKGGI | failed |
| MAIGIAANRLELLQIADAVAREKGIEKEVVIEAIEDALQKAARARYGAEHDIRVKIDPKTGETTQKRVIEVVSDDAELEGEIGKMPFSIAKRTWRDAEIGKVYEEVLPPFEIGRVQTQMARQVVMHKVREAERERQYDEYKDRVGEIVNGSVKRVEYGNVIVDLGRGEGIMRRDQSIPRENFNVGDRIRAYIYDVRRETKGPQIMLSRAHGGFMAKLFAQEVPEVYDGVIEIRAVARDPGSRAKMAVISNDGSIDPVGACVGMRGSRVQAVVAELQGEKIDIIQWSEDEATFIVNALAPAEVSKVVMDEEDERVEVVVPDEQLSLAIGRRGQNVRLASQLTGWQIDIMTESQESERRQREFAERTALFQEALDVDEVIAQLLVTEGFAAVEDVAYVEPHEIASIEGFDEETAEELQTRAREFLEKEAAELDAKRKALGVEDELLTIEGVTLAMAVALGEGDVKSIEDLAGLVPDDMRGWFENKGGERVREPGILESFNLSPEDAEALIMRARIAMGWVEAPPEPEPEPEFEEESSAEGDVVAEAEEEA | failed |
| MIFRQLFDPQSSTYTYLLADPASREALLIDPVFEQVRRDAALLDELGLRLVATVDTHVHADHVTGAWLLKQRTGSTIAISAASGAQGADRYLNDGDRCAFGARYLTVRATPGHTSGCISLVLDDESMAFTGDCLLIRGTGRTDFQQGDPRALYRAVHARLFTLPAACLLYPAHDYRGLTVTSVGEERRFNPRLGGDLSEDDFAGYMRNLGLAHPRQIDVAVPANLQCGVAANAPDALAAADWAPLVYTFAGFWEIDPQWLEDHLPAVQVVDVREPDEFAGPLGHLPGATPIPLGELAARTGELARDRPIVTVCRAGGRSAQATVILLKAGFDAVANLGGGMLRWRGEGRVVMDGRS | failed |
| MSLAKISKIEAQKRKGRYNIYLDGKYAFPVAESVLIQFRLMKGTELDEKQIAAIATADQQAKAYSRMLDYLSYQMRTESDIVKKLKEIDTPEEFVEPILKKLRGQQLIDDHAYAASYVRTMINTDLKGPGIIRQHLRQKGIGESDIDDALTQFTPEVQAELAKKLALKLFRRYRNQPERRREQKVQQGLTTKGFSSSVYEMIKDEVVPQPDLEEGHHHHHH | not failed |
| MVIRVTERRVKLASIISYDFLFLVLLSGLLNLIITIFRERLLYVLSSFFQYIVSNPSVALGDALGFIFVLQALLLGLFIGGIVILSISFTINLTRIRSEYEEGVPLSTILRSRIITSSRLGIIANWISERSKRYINASADLESPTEVGVRYVAYFLVSLLVVIPVSLALSIALLSPLPFLLIFFPLTFIFYPEQKYKSRAREIRDDIQDEIPFFVTLITIINASGTTIYEGMRKILQFPIFKAMKKEALLIIRDIEFFGKSPLDALEHRSRLTLNRDYSWFLAGYSSIIRSGGDIEAYLFQKAREFLNWLQFRWRFYSERTSFLGELIVILFLIFPMFLIALAFFTSGAVISFLLIIPILFGTILYTITANNRPRYMDSIGLTKLQLLIGFIAALLTAGVIEIFLDEIYYAIGLGLLSFSLASTIFMYNQIREINDVENSLPQFLRDITEFRKIGYDLSRAIKTLAEEKRYRREFNRVLNEITKQDSMGIPITRAKINTRSWLGKFSLTTVQILIESGAVRPDLLEYLTEFTLNFIQSKKEAFSRMRAYQVLGILTPLLLIATILIAIVIIDSFTIVTLPTNTVGLPQFPNIISQFILSPVILAEMFIFILMSTFAIGLLVTKALYGTVQYMIMPAIGLTLAVLSIHFFSVIEPIILKFFSI | failed |
| GDETGVMDSLLEALQSGAAFRRKRGPRQANRKAGCAVTSLLASELTKDDAMAAVPAKVSKNSETFPTILEEAKELVGRAS | failed |
| MSVNGAFSPCVVIPCYNHGAMMASVLVRLAPLALPVFIVDDGSDAATQHVLNLLAAENDGVTLIRLANNSGKGAAVMRGIEAVAQAGFSHALQVDADGQHQIEDAPLLLDEAKTHPDCLISGRPRYDDSVPKSRLYGRYVTHVWVWIETLSLSIKDSMCGFRVYPVAATVSLLSRKSLGRRMDFDTEIMVRLYWAGTPSRFIETAVTYPENGLSHFDALHDNLRISWMHTRLFFGMLPRIPVLLMRQRQQHWAGVSERKGLLGMRFMLAVYQRLGRGVFTLFLWPVIAFYWLTGRTARKASQSWLRQIGEYAHQQDILLPKPLNSYHHFLRFGQAMLDKIASWRGDLHWGRDIDFAPGAQEAIEHGRQKGQLILASHLGDIEVCRALAPQVSGLVINALVFTENSQRFKQVLEEIAPQAGVNLIPVSNIGPDTAIMLQQKLDAGEWVAIVGDRTAVHRQRGGVRRVVWSPFLGKEAPFPQGPFVLAAALRCPVLLMFVIREQKKLRVYCEPFADSITLPRPTRQQALQQVVDRYAERLAHYALKSPLDWFNFFDFWSLPDDDGRTAGKKESLEHHHHHH | failed |
| MKTGKELKPGTVIRIDNDPWLVQKAEFTKSGRNSAIMKTKLKNLLTGYKTETVYGADDKLDDVILDRKEATLSFISGDTYTFMDTTDYTMYELNAEDIEAVLPFIEEGMTDVCEAVFFEDRLVSVDLPTTIVRQVDYTEGSARGDTSGKVMKPAKLKNGTELSVADFIEIGDMIEIDTREGGSYKGRAKV | failed |
| MMNRILLIFLILMSTCFAGCFEQNNLEKSQEMAEIGFAYIGIDNDKAIEYYEKAIKLNPDDANAISFLGTLYDGEGDREKAYEYLTKALEMEPKNPWMYYNLGLYYLNHDDNMAIGCFEKALRIDPENECCWSQLGYTYYDIGDYTNSKLNFEKAYEINPKDQYSDMIEKCNEGI | failed |
| MKRKGVGFSLPVTVVMLVIGFIYFASVFTFIDRWFSLTSSPGIANAAAFTALALMCIYNYSIAVFRDPGRVPLNYMPDVEDPESPVHEIKRKGGDLRYCQKCSHFKPPRAHHCRVCKRCVLRMDHHCIWINNCVGHTNYKVFFVFVVYAVTACVYSLVLLVGSLTVEPQDEEEEMGSYLRTIYVISAFLLIPLSIALGVLLGWHIYLILQNKTTIEVYHEGVRAMWLAEKGGQVYKHPYDIGAYENLTLILGPNILSWLCPTSRHIGSGVRFRTAFDSIPDSSETKH | failed |
| MGHHHHHHSHADLPQWVSERLLQQINQLTNYEPVIGIMGKTGVGKSSLCNALFAGDISPVSDVAACTREPLRFRLQVGDRYITLMDLPGVGESGARDTEYAALYREQLPRLDLVLWLIKADDRALTVDEHFYHQVIGEVYRHKVLFVISQSDKAEPTSGGGQLSTAQKQNISRKICLLHELFQPVHPVCAVSVRLQWGLKVMAERMIKCLP | not failed |
| MTHSQWQSLPRRGAYVAAINGTLGGGCAGLITASVTVVWLHAWRYWPAVLGVTAVIALLGAWLAVKRHRLTQWQLDQHGLALQRGHLWQSDTRVPISRVQHVDLRRGPIERATGLTTLVVHTAGSRLNAVALSGLDQDDAERLRDRLARQLDHDDDAL | failed |
| MLFEASLVAVWAFFCGIDKYDVALNIHRPLITGPVVGLIMGDMQIGLIAGATLELAWLGLVPNAGAQPPDVTMGTIAAVAFAVMTGQSPEVAMGVGMPIAVLMQMLVIGFFAMTSFTMGKADKYAEEANTNGIDFLLLSTITMRSMLYAVIAFLTVYFGEHGAAWIDANAPKTLLEGLGIGAKMVPAIGFAMLLKIMWSKEVAGVFFIGFVMTTYLQLPIMAVAILGASAAALYYFFSGNGNKNSNQEFEDFEDGI | failed |
